The values below come from patent publication US20030140381, “Genes and regulatory DNA sequences associated with stress-related gene expression in plants and methods of using the same” (Pioneer Hi-Bred International, Inc., published 2003).

Series [1] concerns the target T1, ZmABI4 (maize ABI4, AP2-domain transcription factor) (Zea mays). Put plainly: EMSA; described as high affinity. On the technique in general: A gel shift assay detects complexes by their altered migration in electrophoresis.
Series [2] concerns the target T1, ZmABI4 (maize ABI4, AP2-domain …). As to the kind of experiment: EMSA.

T1 sequence (chain, as listed by the source): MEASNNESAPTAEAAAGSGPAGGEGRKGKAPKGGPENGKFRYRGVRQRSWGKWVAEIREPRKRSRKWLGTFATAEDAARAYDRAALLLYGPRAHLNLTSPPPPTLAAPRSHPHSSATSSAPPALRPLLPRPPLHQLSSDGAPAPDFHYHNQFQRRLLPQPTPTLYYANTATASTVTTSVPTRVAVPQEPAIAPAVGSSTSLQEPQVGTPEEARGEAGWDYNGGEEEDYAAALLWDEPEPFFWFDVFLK

B1: Adh1 promoter element (-246 to -229) (dsDNA)
DNA 1: CGCCGCCACCGCTTGGCG
DNA 2: CGCCAAGCGGTGGCGGCG
For the molecule B1, the binding result in series [1] is given as “binds”.

B2: ZmABI4 upstream element (-175 to -158) (dsDNA)
DNA 1: TTTGACCACCGCCCCTCT
DNA 2: AGAGGGGCGGTGGTCAAA
In the case of B2, the binding result in series [2] is given as “binds”.
